# This sample holds only a part of the variants without activity.
# B1: TPR 5TU (parent)
# chain: GGAUCUUCUCGAUCUAACAAAAAAGACAAAUCUGCCACAAAGCUUGAGAGCAUCUUCGGAUGCAGAGGCGGCAGCCUUCGGUGGCGCGAUAGCGCCAACGUUCUCAACUAUGACACGCAAAACGCGUGCUCCGUUGAAUGGAGUUUAUCAUG
# Variants of: B1
# Assay: polymerase ribozyme fitness, log enrichment relative to wild type (log ratio); higher = more active; in vitro selection for triplet polymerase activity
# Procedure, shortened: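 After PCR construction and transcription, each subunit's mutant library from a heterodimeric triplet polymerase ribozyme was annealed with a biotinylated primer, the partner subunit and triplets. Incubation was frozen, at −7 °C, and extended constructs were gel-excised, bound to streptavidin beads and amplified by RT-PCR, in one selection round done in triplicate. Fitness is the logarithm of a genotype's enrichment divided by that of the wild type, from inverse-variance-weighted replicate averages of Illumina-sequenced inputs and outputs. The base of the logarithm is 2, and genotypes needed ≥10 input reads and ≥1 read per output.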
row,Variant,polymerase ribozyme fitness (log ratio)
1,GGAUCUUCUCGAGCUAACAAAAAAGACAAAUCUGCUACAAAGCUUGUGAGCAUCUUCGGAUGCAGAGGCGGCAGCCUUCGGUGACGCGAUAGCGCCAACGUUCUCAACUAUGACACGCAAAGCGCGUGCUCCGUUGAUUGGAGUUUAUCAUG [U13G C36U A47U G84A A122G A138U],≤ -4.2
2,GGAUCUUCUCGAGCUAACAAAAAAGACUAAUCUGCCACAAAGCUUGAGAGCAUCUUCGGAUGCCGAGACGGCAGCCUUUGGUGGCGCGAUAGCGCCAACGUUCUCAACUAUGACACGCAAAACGCGUGCUCCGUUGAAUGGAGUUUAUCAUG [U13G A28U A64C G68A C79U],≤ -4.2
3,GGAUCUUCUCGAGCUAACAAAAACGACAAAUCUGACACAAAGCUUGAGUGCAUCUUCGGAUGCAGAGGCGGCAGCGUUCGGUGGCGCGAUCGCGCCAACGUUCUCAACUAUGACACGCAAAACGCGUGCUCCGUUGAAUGGAGUUUAUCAUG [U13G A24C C35A A49U C76G A91C],≤ -4.2
4,GGAUCUUCUCGAGCUAACAAAAAAGACAAAUCUGCCACAAAGCUUGAGAGCGUCUUCGGAUGCAGAGGCGGCAGCCUUCGGUGGCGCGAUAGCGCCAACGUUCUCAACUAUGACACGCAAAACGCGUGCUCCGUUGAAUGGAGUUUAUCAUG [U13G A52G],-1.06
5,GGAUCUUCUCGAGCUAACAAAAAAGACAAAUCUGCCUCAAAGUUUGAGAGCCUCUUCGGAUGCAGAGGCGGCCGCCUUCGGUGCCGCGAUAGCGCCAACGUUCUCAACCAUGACACGCAAAACGCGUGCUCCGUUGAAUAGAGUUUAUCAUG [U13G A37U C43U A52C A73C G84C U109C G140A],≤ -4.2
6,GGAUCUUCUCGAGCUAACAAAAAAGACAAAUCUGCCACAAAGCUUGAGAGCAUCUUCGGAUGCAGAGGCGGCAGCCUUCGGUGGCGCGAUAGCGCCAACGUUCUCGACUAUGACACGCAAAACGCGUGCUCCGUUGAAUGGAGUUUAUCAUG [U13G A106G],-1.5
7,GGAUCUUCUCGAGCUAACAAAAAAGACAAAUCUGCAACAAAGCUUGAGAGCAUCUUCGGAUGCAGAGGCGGCAGCCUUCGGUGGUGCGAUAGCGCCAACGUUCUCAACUAUGACUCGCAAAACGCGUGCUCCGUUGAACGGAGUUUAUCAUG [U13G C36A C85U A115U U139C],≤ -4.2
8,GGAUCUUCUCGAGCUAACAAAAAAGACAAAUCUGCCAAAAAGCUUGAGAGCAUCUUCGGAUGCAGAGGCGGCAGCCUUCGGUGGCGCGAUAGGGCCAACGUUCUCAACUAUGACAGGCAAAGCGCGUGCUCCGUUGAAUGGAGUUUAUCAUG [U13G C38A C93G C116G A122G],≤ -4.2
9,GGAUCUUCUCGAGCUAACAAAAAAGACAAAUCUGCCACACAGCUUGAGAGCAUCUUCGGAUGCAGAGGCGGCAGCCUUCGGUGGCGCGAUAGCGCGAACGUUCUCAACUAUGACACGCGAAACGCGUGCUCCGUUGAAUGGAGUUUAUCAUG [U13G A40C C96G A119G],-1.98
10,GGAUCUUCUCGAGCUAACAAAAAAGACAAAUCUGCCACAACGCUUGAGAGCAUCGUCGGAUGCAGAGGCGGCAGCCUUCGGUGGCGCGAUAGCCCCAACGUUCUCAACUAUGACAAGCAAAACGCGUGCUCCGUUGAAUGGAUUUUAUCAGG [U13G A41C U55G G94C C116A G143U U151G],≤ -4.2
11,GGAUCUUCUCGAGCUAACAAAAAAGACAAAUCUGACACAAAGCUUGAGAACAUAUUCGGAUGCAGAGGCGGCAGCGUUCGGUGGCGGGUUAGCGCCAACGUUCUCACCUAUGACACGCAAAACGCGUGCUCCGUUGAAUGCAGUUUAUCAUG [U13G C35A G50A C54A C76G C87G A89U A107C G141C],≤ -4.2
12,GGAUCUUCUCGAGCUAACAAAAAAGACAAAUCUGCCACAAAGCUUGAGAGCAUCUUCGGAUGCAGAGGCGGCAGCCUUCGGUGGUGCGAUAGCGCUAACAUUCUCAACUAUGACCCGCAAAACGCGUGCUCCGUUGAAUGGAGUUUAUCAUG [U13G C85U C96U G100A A115C],≤ -4.2
13,GGAUCUUCUCGAGGUAACAAAAAAGACAAAUCUGCCACAAAGCUUGAGAGCAUCUUAGGAUGCAGAGGCGACAGCCUUCGGUGGCGCGAUAGCGCCAACGGUCUCAACUAUGACACGCAAAACACGUGCUCCGUUGAAUGAAGUUUAUCAUG [U13G C14G C57A G71A U101G G124A G141A],≤ -4.2
14,GGAUCUUCUCGAGCUAACAAAAAAGACAAAUCUGCCACAAAGCUUGAGUGCAUCUUCGGAUGCAGAGGCGGCAGCCUUCGGUGGCGCGAUAGCGCCAACGUUCUCAACUAUGACACGCAAAACGCGUGCUCCGUUGAAUGGAGUUUAUCAUG [U13G A49U],-2.21
15,GGAUCUUCUCGAGCUAACAAAAAAGACAAAUCUGCCACAAAGCUUGAGAGGAUCUUCGGAUGCAGAGGCGGCAGCCUUCGGUGGCGCGAUCGCGCCAACGUUCUCAACUAUGACACGCAAAACGCGUGCUCCGUUGAAUGGAGUUUAUCAUG [U13G C51G A91C],≤ -4.2
16,GGAUCUUCUCGAGCUAACAAAAAAGGCAAAGCUGCCACAAAGCUUGAGAGGAUCUUCGGAUGCAGAGGCGGCAGCCUUCGGUGGCGCCAUAGCGCCAACGUUCUCAACUAUGACACGCAAAACGCGUGCUCCGUUGAAUGGAGUUUAUCAUG [U13G A26G U31G C51G G88C],≤ -4.2
17,GGAUCUUCUCGAGCUAACAAAAAAGACAAAUCUGCCACAAAGCUUGCGAGCAUCUUCGGAUGCAGAGGCGGCAGCCUUCGGUGGCGCCAUUGCGCCAACGUUCUUAACUAUGACACGCAAAACGCGUGCUCCGUUGAAUGGAGUUUAUCAUG [U13G A47C G88C A91U C105U],≤ -4.2
18,GGAUCUUCUCGAGCUAACAAAAAAGACAAAUCUGCCACAAGGCUUGAGAGCAUGUUCGGAUGCAGAGGCGGCAGCCUUCGAUGGCGCGAUAGCGCGAACGUUCUCAACUAUGACACGUAAAACGCGUGCUCCGUUGAAUGGAGUUUAUCAUG [U13G A41G C54G G81A C96G C118U],≤ -4.2
19,GGAUCUUCUCGAGGUAACAAAAAAGACAAAACUGCCACAACGCUUGAGAGCAUCUUCGGAUGCAGAGGCGGCAGCCUUCGGUGGCACGAGAGCGCCAACAUUCUCAACUAUGACACGCAAAACGCGUGCUACGUUGAAUGGAGUUUAUCAUG [U13G C14G U31A A41C G86A U90G G100A C131A],≤ -4.2
